{
  "source": "patent US20190127434",
  "test_system": "K6UbKMRC011",
  "data": [
    {"substance": "USP1 (ubiquitin-specific protease 1)", "values": [
      {"measurement": "cleavage by USP1, SDS-PAGE analysis (10 mg/L enzyme, 37 C, 12 hours)", "value": "most of the refolded K6UbKMRC011 was cleaved by USP1 and separated into K6Ub and KMRC011"},
      {"measurement": "cleavage by ubiquitin cleavage enzymes, SDS-PAGE analysis (10 mg/L enzyme, 37 C, 12 hours)", "value": "the refolded K6UbKMRC011 was cleaved by the ubiquitin cleavage enzymes shown in Table 2 and correctly separated into K6Ub and KMRC011"},
      {"measurement": "on-column cleavage, amino terminal sequence analysis of the released KMRC011", "value": "the USPI clearly cleaved the immediate side of K6Ub of K6UbKMRC011 so that only KMRC011 was separated and purified"}
    ]}
  ]
}
